This passage reports IC50 and EC50 results from patent US20170233485A1 (published 2017).

Assay [1] concerns the target human FcγR CD16a V158-GST fusion protein (human, UniProt P08637 17-208). The experiment in a line: ALPHAscreen competition. In general terms: Bead proximity is the source of the signal in Alpha formats.
Assay [2] concerns the target T1, human FcγR CD32b-GST fusion protein (human, UniProt P31994 43-217).
T1 chain: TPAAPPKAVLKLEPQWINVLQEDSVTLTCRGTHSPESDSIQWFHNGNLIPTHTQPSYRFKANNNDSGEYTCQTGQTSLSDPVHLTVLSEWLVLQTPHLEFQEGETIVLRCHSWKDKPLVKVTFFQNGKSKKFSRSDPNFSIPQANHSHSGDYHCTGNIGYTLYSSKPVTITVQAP
Kind of assay: ALPHAscreen competition.

The target in assay [3] is T2, human FcγR CD64-GST fusion protein (human, UniProt P12314 16-292).
T2 chain: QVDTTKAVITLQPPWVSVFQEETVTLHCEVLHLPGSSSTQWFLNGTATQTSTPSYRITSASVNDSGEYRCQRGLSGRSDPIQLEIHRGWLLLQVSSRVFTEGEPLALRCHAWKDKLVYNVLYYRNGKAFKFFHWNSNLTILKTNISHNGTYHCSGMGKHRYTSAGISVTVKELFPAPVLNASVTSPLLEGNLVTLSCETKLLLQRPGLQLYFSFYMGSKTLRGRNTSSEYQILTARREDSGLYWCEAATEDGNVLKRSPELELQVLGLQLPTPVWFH
Kind of assay: ALPHAscreen competition.

The target in assay [4] is T3, human FcγR CD32a R131-GST fusion protein (human, UniProt P12318 34-217).
T3 chain: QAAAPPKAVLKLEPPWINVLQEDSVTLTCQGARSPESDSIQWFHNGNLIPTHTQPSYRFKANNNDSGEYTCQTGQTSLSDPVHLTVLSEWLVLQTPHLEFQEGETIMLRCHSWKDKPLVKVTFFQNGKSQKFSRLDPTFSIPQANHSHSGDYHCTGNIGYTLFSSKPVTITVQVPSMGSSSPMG
The experiment in a line: ALPHAscreen competition.

Assay [5] concerns the target T4, cynomolgus monkey CD40 (cell surface).
T4 chain: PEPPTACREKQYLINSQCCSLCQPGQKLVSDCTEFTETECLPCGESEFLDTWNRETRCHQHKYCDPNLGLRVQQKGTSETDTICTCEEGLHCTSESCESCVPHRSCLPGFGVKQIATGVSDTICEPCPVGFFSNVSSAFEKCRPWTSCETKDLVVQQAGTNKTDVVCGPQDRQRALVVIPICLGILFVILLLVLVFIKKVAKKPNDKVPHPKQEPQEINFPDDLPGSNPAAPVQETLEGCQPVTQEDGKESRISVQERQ
The experiment in a line: flow cytometry, B cells in whole blood; geometric mean, A647-conjugated. Background: Flow cytometry measures light scatter and fluorescence of single cells or particles in a stream.

Assay [6] addresses T5, human CD40 (cell surface) (UniProt P25942 20-277). The description is as above.
The target of assay [7] is T5, human CD40 (cell surface). Kind of assay: flow cytometry, B cells in whole blood; A647-conjugated.
Assay [8] deals with T4, cynomolgus monkey CD40 (cell surface). Kind of assay: flow cytometry, CHO-CD40; avid.
Assay [9] has as its target T6, rhesus monkey CD40 (cell surface) (rhesus monkey, UniProt F6SNI1 21-278).
T6 chain: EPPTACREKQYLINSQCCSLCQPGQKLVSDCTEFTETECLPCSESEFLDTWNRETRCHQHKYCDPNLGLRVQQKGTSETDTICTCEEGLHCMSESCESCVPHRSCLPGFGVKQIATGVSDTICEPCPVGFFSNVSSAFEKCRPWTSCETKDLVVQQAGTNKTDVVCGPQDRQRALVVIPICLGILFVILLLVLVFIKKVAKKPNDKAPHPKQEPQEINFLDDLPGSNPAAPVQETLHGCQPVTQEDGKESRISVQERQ
Kind of assay: flow cytometry, CHO-CD40; avid.

Assay [10] deals with T5, human CD40 (cell surface). Kind of assay: flow cytometry, CHO-CD40; avid.
For assay [11], the target named is T5, human CD40 (cell surface). Kind of assay: flow cytometry; 4-P fit parameter C.

Sequence of human FcγR CD16a V158-GST fusion protein (P08637 17-208 F176V): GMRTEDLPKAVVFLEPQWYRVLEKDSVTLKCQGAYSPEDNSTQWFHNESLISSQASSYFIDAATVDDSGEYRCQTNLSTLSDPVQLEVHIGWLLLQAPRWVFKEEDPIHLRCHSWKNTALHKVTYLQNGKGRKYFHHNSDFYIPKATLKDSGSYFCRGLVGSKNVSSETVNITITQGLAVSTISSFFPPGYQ

B1: Exemplary Anti-CD40 Antibody 1 (antibody)
heavy: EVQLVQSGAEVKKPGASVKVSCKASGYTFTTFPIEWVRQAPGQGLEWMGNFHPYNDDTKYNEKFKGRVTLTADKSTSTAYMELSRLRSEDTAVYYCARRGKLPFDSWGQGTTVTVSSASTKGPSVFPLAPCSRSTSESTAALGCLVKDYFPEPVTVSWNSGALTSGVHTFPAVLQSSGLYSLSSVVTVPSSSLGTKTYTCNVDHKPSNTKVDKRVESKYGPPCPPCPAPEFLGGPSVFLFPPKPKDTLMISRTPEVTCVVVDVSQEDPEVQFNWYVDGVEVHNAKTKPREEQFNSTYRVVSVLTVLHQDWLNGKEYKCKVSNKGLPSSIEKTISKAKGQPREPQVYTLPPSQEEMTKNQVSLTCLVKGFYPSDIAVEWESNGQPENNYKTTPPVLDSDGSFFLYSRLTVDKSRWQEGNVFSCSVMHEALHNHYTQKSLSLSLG
light: DIQMTQSPSSLSASVGDRVTISCRASQDISNYLNWYQQKPGKVPKLLIYFTSRLRSGVPSRFSGSGSGTDYTLTISSLQPEDVATYYCQQDRKLPWTFGQGTKLEIKRTVAAPSVFIFPPSDEQLKSGTASVVCLLNNFYPREAKVQWKVDNALQSGNSQESVTEQDSKDSTYSLSSTLTLSKADYEKHKVYACEVTHQGLSSPVTKSFNRGEC
modifications: Alexa647 conjugate in some whole-blood assays; N-linked glycan on the heavy chain; neither is carried by the letters.
The term IC50 denotes the concentration at which inhibition is half-maximal. In the case of B1, the IC50 is 680 µg/mL in assay [1], 282 µg/mL in assay [2], 14.7 µg/mL in [3] and 118 µg/mL in [4].

B2: Agly hAKH3 IgG4P/IgG1 (antibody, V domains shown)
VH: EVQLVQSGAEVKKPGASVKVSCKASGYTFTTFPIEWVRQAPGQGLEWMGNFHPYNDDTKYNEKFKGRVTLTADKSTSTAYMELSRLRSEDTAVYYCARRGKLPFDSWGQGTTVTVSS
VL: DIQMTQSPSSLSASVGDRVTISCRASQDISNYLNWYQQKPGKVPKLLIYFTSRLRSGVPSRFSGSGSGTDYTLTISSLQPEDVATYYCQQDRKLPWTFGQGTKLEIK
By EC50 is commonly meant the midpoint of the concentration-response curve. On to B2, for which the EC50 in [5] is 0.109 µg/mL; in assay [6], 0.0626 µg/mL; in assay [7] it was 0.0777 µg/mL; in [8], 0.131 µg/mL; in assay [9], 0.249 µg/mL; in assay [10], 0.0895 µg/mL. The same molecule returned an EC50 in assay [11] of 0.0804 µg/mL.
